fluorescein = fluorescein label (on the lysine ε-amine)
B1: MKK3b peptide, unlabeled (peptide)
peptide: Ac-GKSKRKKDLRISCMSKP-NH2
notes: stretch of MKK3b, the most abundant splice variant of MAP2K3; also called unlabeled MKK3b
B2: fluorescein-labeled MKK3b peptide (peptide)
peptide: Ac-GKSKRKKDLRISCMSKPK(fluorescein)-NH2
notes: stretch of MKK3b, the most abundant splice variant of MAP2K3; added C-terminal lysine that carries the fluorescein; also called C-terminal labelled MKK3b peptide

What follows are binders tested against T1, p38α (MAPK14), nonphosphorylated (mouse, UniProt P47811 1-360) (assay: fluorescence polarisation; competition: unlabeled peptide titrated into 2 nM fluorescein-labeled MKK3b peptide and 10 μM p38α; 50 mM HEPES pH 7.4, 10 mM MgCl2, 1 mM Chaps, 1 mM DTT, 1% DMSO; ambient temperature, 20 minutes). Conditions: both partners purified.
T1 construct: mouse p38α (MAPK14); Also used as the target of the functional rows on co-expressed p38α (E. coli pETDuet-1 first cloning site; HEK293 plasmid not described); source: E. coli Rosetta II (pETDuet-1), purified
T1 sequence (P47811 whole entry): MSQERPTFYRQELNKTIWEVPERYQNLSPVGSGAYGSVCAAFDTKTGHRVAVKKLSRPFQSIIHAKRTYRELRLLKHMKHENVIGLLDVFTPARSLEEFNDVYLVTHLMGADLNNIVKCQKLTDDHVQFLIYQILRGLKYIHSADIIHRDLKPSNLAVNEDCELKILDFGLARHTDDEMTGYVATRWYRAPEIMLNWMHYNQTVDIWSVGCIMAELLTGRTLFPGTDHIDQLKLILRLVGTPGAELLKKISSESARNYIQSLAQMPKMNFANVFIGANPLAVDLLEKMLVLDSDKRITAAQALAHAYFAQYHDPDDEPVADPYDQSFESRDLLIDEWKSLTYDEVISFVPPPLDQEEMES

Q: Does B1 bind?
A: binds

Q: Does B2 bind?
A: binds

Q: Does Ac-RVYPVSVPYSSAQSTSKTSVTLSLVMPSQ-NH2 (also called TAB-1 peptide; TAB1 peptide) [TAB1 (residues 384–412) peptide] bind?
A: binds
